This is an account of results in patent publication US20090076249A1 (published 2009).

Holding throughout (test): cell-based or functional assay
The target of assay [1] is T1, human CD38 (human, UniProt P28907 1-300).
For assay [2], the target named is T1, human CD38. This is another data set of the same source.
Assay [3] has as its target T1, human CD38. This is another data set of the same source.
Assay [4] concerns the target T1, human CD38. This is another data set of the same source.

A value given as a limit tells only on which side of the number the result lay.

B1: -024 (antibody, V domains shown)
VH: EVQLVQSGAEVKKPGESLKISCKGSGYSFSNYWIGWVRQMPGKGLEWMGIIYPHDSDARYSPSFQGQVTFSADKSISTAYLQWSSLKASDTAMYYCARHVGWGSRYWYFDLWGRGTLVTVSS
VL: EIVLTQSPATLSLSPGERATLSCRASQSVSSYLAWYQQKPGQAPGLLIYDASNRASGIPARFSGSGSGTDFTLTISSLEPEDFAVYYCQQRSNWPLTFGGGTKVEIK
On to B1, for which, in the assay with human CD38 [1], the “EC50 of ADCC (51Cr release), Daudi-luc target cells” value stood at 0.0097 mg/L and the “EC50 of ADCC (51Cr release), fresh MM tumor cells” value was determined as 0.056 mg/L. Moreover, in the assay with human CD38 [2], the “EC50 of CDC (PI-positive cells), CD38-CHO cells” value is 0.24 mg/L and the “EC50 of CDC (PI-positive cells), Daudi-luc cells” value is above 90 mg/L.

B2: -003 (antibody, V domains shown)
VH: not shown
VL: DIQMTQSPSSLSASVGDRVTITCRASQGISSWLAWYQQKPEKAPKSLIYAASSLQSGVPSRFSGSGSGTDFTLTISSLQPEDFATYYCQQYNSYPRTFGQGTKVEIK
As to B2, in the assay with human CD38 [1], the “EC50 of ADCC (51Cr release), Daudi-luc target cells” value came out at 0.009 mg/L and the “EC50 of ADCC (51Cr release), fresh MM tumor cells” value worked out at 0.027 mg/L. In the assay with human CD38 [2], the “EC50 of CDC (PI-positive cells), CD38-CHO cells” value was determined as 3.14 mg/L and the “EC50 of CDC (PI-positive cells), Daudi-luc cells” value was above 90 mg/L. The “EC50 of CDC, CHO-CD38 cells (n = 2)” value in the assay with human CD38 [3] was 4.5 mg/L. Besides, in the assay with human CD38 [4], the “Log EC50 of ADCC, Daudi target cells (n=5)” value came to 1.17.
